In the supplement of paper PMC10724198 one finds protein stability index data, which are given here for 37 sequences.

Series [1] has as its system Saccharomyces cerevisiae. Kind of series: protein stability index of tFT-peptide fusion in wild type (PSI (0-1 scale)); higher = more stable (slower turnover). As to conditions: genetic background: wild type. Here is the method:
(§1)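 MPS profiling in S. cerevisiae of two library types built from selected 12-aa C-degron peptides (IN1, IN2, LN1, LN3, VN2, R1-R5, W1-W3, Atg1 and Rpa12 C-termini): saturation mutagenesis libraries and C-terminal +1 capping libraries (13 aa). Each peptide is fused to the C-terminus of a sfGFP-mCherry timer, after a GGGS linker. Cells are FACS-sorted into 8 mCherry/sfGFP bins and sequenced. PSI runs from 0 (unstable) to 1 (stable), measured once in wild type and in the das1Δ or doa10Δ background.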

Series [2] deals with Saccharomyces cerevisiae. Description: protein stability index of tFT-peptide fusion in deletion strain of DAS1 (PSI (0-1 scale)); higher = more stable (slower turnover). The method, then:
as §1
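Wherever protein stability index of tFT-peptide fusion in deletion strain of DAS1 is given: PSI is a weighted mean of each variant's read distribution over the sorted stability bins, computed only for variants having over 10 reads in total.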
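Wherever protein stability index of tFT-peptide fusion in wild type is given: PSI derived as read-weighted mean over the 8 sorting bins, only variants exceeding 10 total reads kept, mCherry placed adjacent to the peptide and sfGFP distal.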

For the sequence ARFRVGLWRGAS, the figures for the protein stability index in the series on Saccharomyces cerevisiae [1] and with Saccharomyces cerevisiae [2] were 0.56 and 0.668, respectively.
In the same order, the values of ARPRVGLWRGAS are 0.65 and 0.681.
In the same order, the values of ARWAVGLWRGAS are 0.428 and 0.71.
In the same order, the values of ARWRQGLWRGAS are 0.678 and 0.616.
On to ARWRVGGWRGAS, for which the protein stability index in the series on Saccharomyces cerevisiae [1] worked out at 0.557; with Saccharomyces cerevisiae [2], 0.701.
As to ARWRVGLWDGAS, the values for the protein stability index with Saccharomyces cerevisiae [1] and with Saccharomyces cerevisiae [2] were 0.705 and 0.688, respectively.
In the same order, the values of ARWRVGLWRGAE are 0.644 and 0.685.
ARWRVGLWRGAK: the values for the protein stability index with Saccharomyces cerevisiae [1] and in the series on Saccharomyces cerevisiae [2] were 0.669 and 0.659, respectively.
For ARWRVGLWRGASC, the protein stability index was 0.628 in the series on Saccharomyces cerevisiae [1] and 0.669 in the series with Saccharomyces cerevisiae [2].
In the same order, the values of ARWRVGLWRGASS are 0.593 and 0.688.
In the same order, the values of ARWRVGLWRGCS are 0.266 and 0.683.
Regarding ARWRVGLWRGYS, the protein stability index in the series with Saccharomyces cerevisiae [1] was found to be 0.621; in the series on Saccharomyces cerevisiae [2], 0.659.
In the same order, the values of ARWRVGLWRMAS are 0.0865 and 0.683.
In the same order, the values of ARWRVGMWRGAS are 0.458 and 0.701.
In the same order, the values of ARWRVGNWRGAS are 0.684 and 0.678.
As for ARWRVGPWRGAS, the values for the protein stability index in the series on Saccharomyces cerevisiae [1] and in the series with Saccharomyces cerevisiae [2] were 0.577 and 0.68, respectively.
In the same order, the values of ARWRVGRWRGAS are 0.533 and 0.688.
Consider ARWRVTLWRGAS, for which the protein stability index was found to be 0.382 with Saccharomyces cerevisiae [1] and 0.692 in the series on Saccharomyces cerevisiae [2].
In the same order, the values of ARWSVGLWRGAS are 0.448 and 0.692.
In the same order, the values of ATWRVGLWRGAS are 0.487 and 0.685.
For the sequence CGSCGYKFRTNN, the protein stability index in the series on Saccharomyces cerevisiae [1] came out at 0.265; with Saccharomyces cerevisiae [2] it was 0.687.
In the same order, the values of CISCGYKFRTNN are 0.211 and 0.725.
In the case of CTSCGFKFRTNN, the protein stability index in the series with Saccharomyces cerevisiae [1] was 0.486; in the series on Saccharomyces cerevisiae [2], 0.697.
On to CTSCGMKFRTNN, for which the protein stability index in the series on Saccharomyces cerevisiae [1] was determined as 0.304; in the series with Saccharomyces cerevisiae [2] it was 0.715.
In the same order, the values of CTSCGYKFCTNN are 0.377 and 0.698.
Turning to CTSCGYKFPTNN, the protein stability index with Saccharomyces cerevisiae [1] was determined as 0.71; in the series with Saccharomyces cerevisiae [2], 0.728.
In the same order, the values of CTSCGYKFRCNN are 0.487 and 0.695.
In the same order, the values of CTSCGYKFRINN are 0.233 and 0.721.
As for CTSCGYKFRLNN, the protein stability index is 0.35 in the series with Saccharomyces cerevisiae [1] and 0.701 with Saccharomyces cerevisiae [2].
Take CTSCGYKFRTDN: the protein stability index stood at 0.65 in the series on Saccharomyces cerevisiae [1] and 0.653 with Saccharomyces cerevisiae [2].
In the same order, the values of CTSCGYKFRTNE are 0.726 and 0.685.
In the same order, the values of CTSCGYKFRTNM are 0.156 and 0.731.
Take CTSCGYKFRTNNA: the protein stability index was determined as 0.698 with Saccharomyces cerevisiae [1] and 0.697 in the series with Saccharomyces cerevisiae [2].
Regarding CTSCGYKFRTNNE, the protein stability index in the series on Saccharomyces cerevisiae [1] stood at 0.709; in the series on Saccharomyces cerevisiae [2], 0.711.
In the same order, the values of CTSCGYKFRTNNV are 0.684 and 0.69.
In the same order, the values of CTSCGYKYRTNN are 0.295 and 0.674.
As for CTSCGYMFRTNN, the protein stability index with Saccharomyces cerevisiae [1] was 0.357; in the series with Saccharomyces cerevisiae [2], 0.682.
